The target of assay [1] is T1, Chondroitin Sulfate Synthase-1 (CHSY1), secreted N-terminally truncated construct aa68-aa802 (human, UniProt Q86X52 68-802).
T1 construct: CHSY1, human, UniProt Q86X52, residues 68-802 (membrane-spanning helix removed); Construct in pHR-CMV-TetO2 with an N-terminal chicken RPTP sigma signal peptide, SUMO, 6x His and a 3C site; no cleavage site before the C-terminal Avi tag; source: Freestyle 293-F cells, co-transfected, secreted; purified from the supernatant (HisTrap, 3C protease, second HisTrap); not shown: SUMO, N-terminal, …
T1 sequence (looked up): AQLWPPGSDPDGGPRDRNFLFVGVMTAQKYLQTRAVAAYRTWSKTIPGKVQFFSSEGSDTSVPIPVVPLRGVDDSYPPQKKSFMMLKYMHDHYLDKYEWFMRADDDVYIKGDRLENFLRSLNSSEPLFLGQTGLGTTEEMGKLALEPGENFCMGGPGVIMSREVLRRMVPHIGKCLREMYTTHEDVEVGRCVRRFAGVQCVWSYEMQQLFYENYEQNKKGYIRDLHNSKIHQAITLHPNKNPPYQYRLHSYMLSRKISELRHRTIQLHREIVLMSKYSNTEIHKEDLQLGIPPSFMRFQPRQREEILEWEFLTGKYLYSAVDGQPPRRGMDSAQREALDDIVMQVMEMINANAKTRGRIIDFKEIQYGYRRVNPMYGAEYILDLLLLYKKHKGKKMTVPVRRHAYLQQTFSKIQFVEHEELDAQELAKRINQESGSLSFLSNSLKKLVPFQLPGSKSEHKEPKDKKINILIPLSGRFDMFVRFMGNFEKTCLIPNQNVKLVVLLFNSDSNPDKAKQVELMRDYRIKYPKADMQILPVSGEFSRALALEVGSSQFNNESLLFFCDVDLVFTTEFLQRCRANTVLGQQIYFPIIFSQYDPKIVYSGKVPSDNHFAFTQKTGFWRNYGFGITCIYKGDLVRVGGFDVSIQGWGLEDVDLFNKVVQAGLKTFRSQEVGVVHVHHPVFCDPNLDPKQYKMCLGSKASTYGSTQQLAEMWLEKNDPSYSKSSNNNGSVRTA
Kind of assay: mass photometry; Refeyn OneMP; purified complexes diluted in 20 mM MES pH 6.5, 150 mM NaCl to around 25 nM. The conditions noted are these: both partners purified.

For assay [2], the target named is T2, Chondroitin Sulfate Synthase-3 (CHSY3), secreted N-terminally truncated construct aa157-aa882 (human, UniProt Q70JA7 157-882).
T2 construct: CHSY3, human, UniProt Q70JA7, residues 157-882 (membrane-spanning helix removed); Construct in pHR-CMV-TetO2 with an N-terminal chicken RPTP sigma signal peptide, SUMO, 6x His and a 3C site; no cleavage site before the C-terminal Avi tag; source: Freestyle 293-F cells, co-transfected, secreted; purified from the supernatant (HisTrap, 3C protease, second HisTrap); not shown: SUMO, N-terminal, …
T2 sequence (looked up): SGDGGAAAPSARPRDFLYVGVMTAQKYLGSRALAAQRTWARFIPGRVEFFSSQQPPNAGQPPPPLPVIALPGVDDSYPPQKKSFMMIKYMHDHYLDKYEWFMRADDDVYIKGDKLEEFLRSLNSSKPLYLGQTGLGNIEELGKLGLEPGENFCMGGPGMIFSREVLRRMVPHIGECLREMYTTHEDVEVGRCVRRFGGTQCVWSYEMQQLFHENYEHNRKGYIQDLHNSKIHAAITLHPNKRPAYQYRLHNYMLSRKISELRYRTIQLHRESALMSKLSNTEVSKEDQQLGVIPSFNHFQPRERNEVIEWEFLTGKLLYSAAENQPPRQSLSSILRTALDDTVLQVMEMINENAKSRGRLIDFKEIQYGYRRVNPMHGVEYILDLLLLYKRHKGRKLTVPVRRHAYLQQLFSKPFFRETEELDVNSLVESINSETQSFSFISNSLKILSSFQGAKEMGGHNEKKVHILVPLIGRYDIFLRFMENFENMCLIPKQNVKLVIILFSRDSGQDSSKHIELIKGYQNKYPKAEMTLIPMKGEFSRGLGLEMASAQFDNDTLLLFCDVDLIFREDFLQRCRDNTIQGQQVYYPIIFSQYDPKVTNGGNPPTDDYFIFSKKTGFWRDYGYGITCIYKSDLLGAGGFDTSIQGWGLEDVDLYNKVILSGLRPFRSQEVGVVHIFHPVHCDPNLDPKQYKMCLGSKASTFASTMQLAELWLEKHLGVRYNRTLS
Described as above. The conditions noted are these: both partners purified.

B1: Chondroitin Polymerization Factor-2 (CHPF2), secreted N-terminally truncated construct aa57-aa772 (domain or fragment, human, UniProt Q9P2E5 57-772, looked up)
chain: SRARLDQSDEDFKPRIVPYYRDPNKPYKKVLRTRYIQTELGSRERLLVAVLTSRATLSTLAVAVNRTVAHHFPRLLYFTGQRGARAPAGMQVVSHGDERPAWLMSETLRHLHTHFGADYDWFFIMQDDTYVQAPRLAALAGHLSINQDLYLGRAEEFIGAGEQARYCHGGFGYLLSRSLLLRLRPHLDGCRGDILSARPDEWLGRCLIDSLGVGCVSQHQGQQYRSFELAKNRDPEKEGSSAFLSAFAVHPVSEGTLMYRLHKRFSALELERAYSEIEQLQAQIRNLTVLTPEGEAGLSWPVGLPAPFTPHSRFEVLGWDYFTEQHTFSCADGAPKCPLQGASRADVGDALETALEQLNRRYQPRLRFQKQRLLNGYRRFDPARGMEYTLDLLLECVTQRGHRRALARRVSLLRPLSRVEILPMPYVTEATRVQLVLPLLVAEAAAAPAFLEAFAANVLEPREHALLTLLLVYGPREGGRGAPDPFLGVKAAAAELERRYPGTRLAWLAVRAEAPSQVRLMDVVSKKHPVDTLFFLTTVWTRPGPEVLNRCRMNAISGWQAFFPVHFQEFNPALSPQRSPPGPPGAGPDPPSPPGADPSRGAPIGGRFDRQASAEGCFYNADYLAARARLAGELAGQEEEEALEGLEVMDVFLRFSGLHLFRAVEPGLVQKFSLRDCSPRLSEELYHRCRLSNLEGLGGRAQLAMALFEQEQANST
notes: CHPF2, human, UniProt Q9P2E5, residues 57-772 (membrane-spanning helix removed); Construct in pHR-CMV-TetO2 with an N-terminal chicken RPTP sigma signal peptide, SUMO, 6x His and a 3C site; a second 3C site stands before the C-terminal twin streptavidin tag; also called CSGlcA-T; source: Freestyle 293-F cells, co-transfected, secreted; purified from the supernatant (HisTrap, 3C protease, second …)
B1: the binding result in assay [1] and in assay [2] was “binds” each time.

For the origin of these results see article PMC12748766, “Structural basis for human chondroitin sulfate chain polymerization” (Nature Communications, 2025).
